B1: FAM189A2 (parent)
chain: PRCDLVDLGEGKICFCCEEFQPAK

Variants of: B1
Assay: protein stability index of a GFP-peptide fusion (GPS, HEK-293T) (PSI 1-6); higher = more stable
Conditions: c terminus: a fixed tail appended
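Further: lentivirally expressed fusions sorted by FACS into six bins by GFP to DsRed ratio, PSI derived from sequencing read proportions per bin multiplied by bin number.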

Going from PRCDLVDLGEGKICFCCEEFEPAK [Q21E] to PRCDLVDLGEGKICFCCEEFGPAK [Q21G], the protein stability index falls from 3.87 to 3.07.

Going from PRCDLVDLGEGKICFCCEEFSPAK [Q21S] to PRCDLVDLGEGKICFCCEEFRPAK [Q21R], the protein stability index falls from 2.65 to 2.44.

Compared with PRCDLVDLGEGKICFCCEEFMPAK [Q21M], PRCDLVDLGEGKICFCCEEFKPAK [Q21K] is higher in protein stability index: 2.24 for the first, 2.79 for the second.

Going from PRCDLVDLGEGKICFCCEEFVPAK [Q21V] to PRCDLVDLGEGKICFCCEEFPPAK [Q21P], the protein stability index rises from 2.66 to 2.86.

Going from PRCDLVDLGEGKICFCCEEFYPAK [Q21Y] to PRCDLVDLGEGKICFCCEEFDPAK [Q21D], the protein stability index rises from 2.33 to 3.61.

Going from PRCDLVDLGEGKICFCCEEFNPAK [Q21N] to PRCDLVDLGEGKICFCCEEFTPAK [Q21T], the protein stability index rises from 3.14 to 3.55.

Going from PRCDLVDLGEGKICFCCEEFLPAK [Q21L] to PRCDLVDLGEGKICFCCEEFAPAK [Q21A], the protein stability index rises from 2.65 to 3.44.

Compared with PRCDLVDLGEGKICFCCEEFHPAK [Q21H], PRCDLVDLGEGKICFCCEEFWPAK [Q21W] is lower in protein stability index: 3.1 for the first, 2.48 for the second.

Going from PRCDLVDLGEGKICFCCEEFFPAK [Q21F] to PRCDLVDLGEGKICFCCEEFCPAK [Q21C], the protein stability index rises from 2.24 to 4.17.

Going from PRCDLVDLGEGKICFCCEEFIPAK [Q21I] to PRCDLVDLGEGKICFCREEFQPAK [C17R], the protein stability index rises from 2.68 to 3.28.

Compared with PRCDLVDLGEGKICFCWEEFQPAK [C17W], PRCDLVDLGEGKICFCFEEFQPAK [C17F] is lower in protein stability index: 2.51 for the first, 2.37 for the second.

Compared with PRCDLVDLGEGKICFCNEEFQPAK [C17N], PRCDLVDLGEGKICFCTEEFQPAK [C17T] is higher in protein stability index: 3.96 for the first, 4.05 for the second.

Compared with PRCDLVDLGEGKICFCLEEFQPAK [C17L], PRCDLVDLGEGKICFCEEEFQPAK [C17E] is higher in protein stability index: 2.15 for the first, 4.67 for the second.

PRCDLVDLGEGKICFCMEEFQPAK [C17M] and PRCDLVDLGEGKICFCYEEFQPAK [C17Y] are the same in protein stability index: 2.66 for the first, 2.66 for the second.

Going from PRCDLVDLGEGKICFCAEEFQPAK [C17A] to PRCDLVDLGEGKICFCPEEFQPAK [C17P], the protein stability index falls from 3.34 to 3.27.

Compared with PRCDLVDLGEGKICFCGEEFQPAK [C17G], PRCDLVDLGEGKICFCKEEFQPAK [C17K] is lower in protein stability index: 3.92 for the first, 3.64 for the second.

Going from PRCDLVDLGEGKICFCHEEFQPAK [C17H] to PRCDLVDLGEGKICFCDEEFQPAK [C17D], the protein stability index rises from 3.11 to 4.29.

Compared with PRCDLVDLGEGKICFCSEEFQPAK [C17S], PRCDLVDLGEGKICFCIEEFQPAK [C17I] is lower in protein stability index: 3.5 for the first, 2.05 for the second.

Going from PRCDLVDLGEGKICFCQEEFQPAK [C17Q] to PRCDLVDLGEGKICFCCETFQPAK [E19T], the protein stability index rises from 3.12 to 3.13.

Going from PRCDLVDLGEGKICFCCESFQPAK [E19S] to PRCDLVDLGEGKICFCCEVFQPAK [E19V], the protein stability index falls from 2.26 to 1.65.

Compared with PRCDLVDLGEGKICFCCEDFQPAK [E19D], PRCDLVDLGEGKICFCCELFQPAK [E19L] is lower in protein stability index: 2.97 for the first, 2 for the second.

Compared with PRCDLVDLGEGKICFCCEFFQPAK [E19F], PRCDLVDLGEGKICFCCECFQPAK [E19C] is higher in protein stability index: 1.78 for the first, 3.96 for the second.

Compared with PRCDLVDLGEGKICFCCEQFQPAK [E19Q], PRCDLVDLGEGKICFCCEHFQPAK [E19H] is lower in protein stability index: 3.05 for the first, 2.94 for the second.

Compared with PRCDLVDLGEGKICFCCEPFQPAK [E19P], PRCDLVDLGEGKICFCCEGFQPAK [E19G] is lower in protein stability index: 3.04 for the first, 2.71 for the second.

Compared with PRCDLVDLGEGKICFCCEKFQPAK [E19K], PRCDLVDLGEGKICFCCEIFQPAK [E19I] is lower in protein stability index: 2.09 for the first, 1.55 for the second.

First: PRCDLVDLGEGKICFCCEAFQPAK [E19A]
Second: PRCDLVDLGEGKICFCCEWFQPAK [E19W]
The protein stability index of the first is higher: 2.51 for the first, 2.25 for the second.

Going from PRCDLVDLGEGKICFCCENFQPAK [E19N] to PRCDLVDLGEGKICFCCERFQPAK [E19R], the protein stability index falls from 3.21 to 2.21.

First: PRCDLVDLGEGKICFCCEYFQPAK [E19Y]
Second: PRCDLVDLGEGKICFCCNEFQPAK [E18N]
The protein stability index of the first is lower: 2.03 for the first, 2.78 for the second.

PRCDLVDLGEGKICFCCYEFQPAK [E18Y] and PRCDLVDLGEGKICFCCMEFQPAK [E18M] are the same in protein stability index: 2.07 for the first, 2.07 for the second.

Compared with PRCDLVDLGEGKICFCCDEFQPAK [E18D], PRCDLVDLGEGKICFCCWEFQPAK [E18W] is lower in protein stability index: 2.56 for the first, 2.01 for the second.

Compared with PRCDLVDLGEGKICFCCVEFQPAK [E18V], PRCDLVDLGEGKICFCCKEFQPAK [E18K] is higher in protein stability index: 2.53 for the first, 2.77 for the second.

Going from PRCDLVDLGEGKICFCCREFQPAK [E18R] to PRCDLVDLGEGKICFCCHEFQPAK [E18H], the protein stability index rises from 2.28 to 2.85.

First: PRCDLVDLGEGKICFCCIEFQPAK [E18I]
Second: PRCDLVDLGEGKICFCCSEFQPAK [E18S]
The protein stability index of the first is higher: 2.63 for the first, 2.55 for the second.

First: PRCDLVDLGEGKICFCCTEFQPAK [E18T]
Second: PRCDLVDLGEGKICFCCQEFQPAK [E18Q]
The protein stability index of the first is lower: 2.45 for the first, 2.64 for the second.

First: PRCDLVDLGEGKICFCCAEFQPAK [E18A]
Second: PRCDLVDLGEGKICFCCFEFQPAK [E18F]
The protein stability index of the first is higher: 3.34 for the first, 2.29 for the second.

Compared with PRCDLVDLGEGKICFCCCEFQPAK [E18C], PRCDLVDLGEGKICFCCPEFQPAK [E18P] is higher in protein stability index: 2.62 for the first, 2.98 for the second.

Going from PRCDLVDLGEGKICFCCLEFQPAK [E18L] to PRCDLVDLGEGKICFCCGEFQPAK [E18G], the protein stability index rises from 1.71 to 2.64.

Compared with PRCDLVDLGEGKICFCCEEFQAAK [P22A], PRCDLVDLGEGKICFCCEEEQPAK [F20E] is higher in protein stability index: 3.31 for the first, 4.91 for the second.

Going from PRCDLVDLGEGKICFCCEELQPAK [F20L] to PRCDLVDLGEGKICFCCEEMQPAK [F20M], the protein stability index rises from 2.42 to 3.16.

Going from PRCDLVDLGEGKICFCCEEGQPAK [F20G] to PRCDLVDLGEGKICFCCEERQPAK [F20R], the protein stability index rises from 3.59 to 4.13.

First: PRCDLVDLGEGKICFCCEEVQPAK [F20V]
Second: PRCDLVDLGEGKICFCCEEQQPAK [F20Q]
The protein stability index of the first is higher: 3.75 for the first, 2.59 for the second.

Compared with PRCDLVDLGEGKICFCCEEDQPAK [F20D], PRCDLVDLGEGKICFCCEEHQPAK [F20H] is higher in protein stability index: 4.05 for the first, 4.34 for the second.

Compared with PRCDLVDLGEGKICFCCEEKQPAK [F20K], PRCDLVDLGEGKICFCCEEPQPAK [F20P] is higher in protein stability index: 3.89 for the first, 4 for the second.

Compared with PRCDLVDLGEGKICFCCEETQPAK [F20T], PRCDLVDLGEGKICFCCEENQPAK [F20N] is lower in protein stability index: 3.97 for the first, 3.86 for the second.

Compared with PRCDLVDLGEGKICFCCEECQPAK [F20C], PRCDLVDLGEGKICFCCEEAQPAK [F20A] is higher in protein stability index: 3.15 for the first, 3.32 for the second.

First: PRCDLVDLGEGKICFCCEEWQPAK [F20W]
Second: PRCDLVDLGEGKICFCCEESQPAK [F20S]
The protein stability index of the first is lower: 2.4 for the first, 3.89 for the second.

Going from PRCDLVDLGEGKICFCCEEYQPAK [F20Y] to PRCDLVDLGEGKICFCCEEIQPAK [F20I], the protein stability index rises from 3.1 to 3.6.

From the supplement of paper PMC10567573
